Laboratory results reported in the RNAGym collection of RNA variant scans (doi:10.1073/pnas.2313332121).

B1: TPR t1 (parent)
chain: GACCAAUCUGCCCUCAGAGCUCGAGAACAUCUUCGGAUGCAGAGGAGGCAGGCUUCGGUGGCGCGAUAGCGCCAACGUCCUCAACCUCCAAUGCAUCCCACCACAUGAUGAUGCCUGAAGAGCCUUGGUUUUUUG

Variants of: B1
Experiment: polymerase ribozyme fitness, log enrichment relative to wild type (log ratio); higher = more active; in vitro selection for triplet polymerase activity
In short: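 Streptavidin-bead capture of gel-excised extended constructs, followed by RT-PCR, closed a single triplicate in vitro selection round. That round began by annealing PCR-built, transcribed mutant libraries of each subunit of a heterodimeric triplet polymerase ribozyme with a biotinylated primer, the partner subunit and triplets, then incubating them frozen at −7 °C. After Illumina sequencing of inputs and outputs, genotypes needed ≥10 input reads and ≥1 read per output. Fitness is the base-2 logarithm of genotype enrichment over wild-type enrichment, using inverse-variance-weighted replicate averages.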

Variant | polymerase ribozyme fitness (log ratio)
C20U A26G G60C A90C | -4.37
U21G C70U G93A | -3.75
C20U C22G G47A C72U C73U C101G A119G G122U | -6.75
U21A C34A C82A C123U U133G | -2.66
C22A C72A U106A A118G | -3.71
C22A A43U U106C C114U | -4.24
U21C G23A G44C G48A A90U C97G C101U C102U C114A | -7.25
C20U C70U C102U | -3.45
U21A A46U C53A G63C | -1.83
U21A G69A U112A | -3
C20U U38A A50U G71A | -4.89
C20U A91U | -2.81
C22A C31G G60U U96A | -6.4
C20U C72U C82U C115A | -1.91
U21C U55A U78A U131A | -0.459
C22A C40A C73A C123U | -4.93
C20U G63A U96G | -3.22
C22A A83G U96A C114A | -5.87
C20U G69U C70G C94A | -3.15
U21A C94G | -1.64
U21A A37C U38G U112G G122C C124U G135A | -1.11
U21A G45A G58A G60U A100U C101G | -2.68
C20U G117U | -3.53
U21A U87G | -0.0526

Variant | polymerase ribozyme fitness (log ratio)
U21A U87A | 0.177
C20U C76A | -2.08
U21G G117A | -2.55
C20U C22A G23U G44U G63U A66C C88G A103C U109A | -6.53
C20U U55A C79U G120A | -1.1
C20U C28A G60A A121C | -2.44
C20U G51U G71A | -6.53
C20U A37U C72G C101A | -2.76
U21A C40A A46U A90U G93U | -2.45
C20U G52A C70U G120A | -1.85
U21C C28A G57U C70A U78G G110U | -3.7
C22A C49U C73G | -4.03
U21A G57C G120A | -0.312
U21C C22U C53G G57U G60A | -5.06
U21G G93A C114U | -3.41
U21C C22A G69C | -4.23
U21C C124U | 1.84
U21A C56U | -0.334
U21A C56A | -0.423
U21C G77A C88U U106C G110A | -5
U21A C72A U125G | -0.653
U21C A95C G107C U109A G113A C124U | -7.51
U21A G44A C62U | -1.4
U21A A119U | -0.295

Variant | polymerase ribozyme fitness (log ratio)
U21A G39C C49U G63A A75G A121C | -2.73
C20U A43G C62U U78G U87A C89G | -5.31
U21G C40A U92A | -2.98
U21A C124G | 0.373
U21A C123G G128C | -1.09
U21G C64U G77A G93U | -3.27
U21A A37U C94U G120A | 0.736
U21A C104U | -0.273
C20U G63C C94A G120C | -2.23
U21A A43U C72A | -2.36
U21C G52U G60C | -1.61
U21G A37G A41U G113U | -2.41
U21C A50U C70U C99U A111U | -7.45
C22A C31A C64G C97U C115A G127U U129G U130G | -6.15
U21G G63C U78A C115U A119U U130A | -5.59
C20U G77U A91G | -5.11
C20U G52A C124U | 0.255
C20U A41G G60C | -2.04
U21G A84C | -2.02
U21C U30G C31A G36C C124A | -4.94
C22A C70U G77C | -6.73
U21A A66U U112G | -0.949
C20U C94G C101U U106A | -5.04
C20U C40G A46C G60U A75C | -4.1

Variant | polymerase ribozyme fitness (log ratio)
C20U A46C C72G | -3.17
U21C C56U C62A G63A A90C C101A U112C | -6.74
U21A G23A A121C | -5.61
C20U G47U C82G | -4.12
C22A C40G G58C G60A | -4.83
U21C A41G G44A C98U | -4.24
C20U A43U | -2.08
C20U A43G C62U U112C | -1.04
U21C G77C | -0.73
C20U G35C G57U C80U U129G | -5.92
C20U G61A C88A | -1.39
C20U C62A C104U A119U C123A G128U | -2.83
C20U G61U | -1.41
C20U G63U G93A C114G | -2.6
C20U G52A | -0.737
U21G A37U C80A A121G | -3.51
U21G C56U U78G C86U A121G | -0.445
U21A G36A | -0.614
C20U C72U G120C | -1.44
C20U G57A G63A C115A | -3.54
C20U A41C | -3.04
U21A A24G C70U | -2.2
U21A U92A | -3.73
C20U U55G C56A | -1.7

Variant | polymerase ribozyme fitness (log ratio)
U21G G48C G63A | -4.12
U21A U81A C101A G113C | -4.64
C20U G60U | -1.52
C20U G60A | -1.03
C20U C53G G69C | -2.15
U21A C72G C86G | -2.59
U21C U78C U96C C114A | -1.81
U21C G69U C89U | -0.984
U21G A26U C72A C104A G110U U125G | -7.09
C20U C28U G45C | -4.64
U21G U87C C114U | -1.41
U21C G57A C72U G77C U96A A121U U125A | -3.06
C20U C53G | -1.28
C22A A37U | -5.66
C20U C31G A66U C73U C98A G110A | -6.9
C22A A43C U78C A83C C86U G113A | -5.47
C20U G42A | -2.49
C22A C56G | -4.66
U21A C49G C62A G113C | -4.99
C20U G23A G61A U112A G113A G122C U130C | -6.32
C20U A43G U112C | -0.81
U21C C56A G58A G113C U132A | -2.29
C20U C72G C102A | -3.19
C22A A37U C53U C73G | -5.35

Variant | polymerase ribozyme fitness (log ratio)
C20U A29G G63A C80U | -4.01
C22A A26U | -4.2
U21G A37G A41U U78C G113U | -2.05
C20U C22G A50C C97U U106A A121C | -4.3
U21A A27C | -3.89
U21A A43U G60A C115U | -2.81
U21A G23U G42C A68G C94A U112A | -6.75
U21A U59C G69U C123A G128C | -3.33
U21C U59G C101A | -1.38
C20U A27C G117U | -6
U21A A46U G93A G113U U130A U132A | -3.92
U21C C70G C94U A111G G128A U131A | -3.27
C20U U96G | -1.9
U21G A121U | 0.0323
U21G G47A A100C U109A U112C A119G | -7.27
C20U A95G C104A U109C C114U C124A | -3.03
U21A G52A C89U | -1.17
C20U C124G | 0.389
U21A C62A C89U G110A U112C | -5.55
C20U G44U A50G A74G | -3.66
C20U C56A C73U U129G U130A | -3
C20U G120C | -0.868
U21A G42C | -1.94
U21A C76U A91C | -2.35

Variant | polymerase ribozyme fitness (log ratio)
C20U G61C A111G | -5.2
C20U A26G A43G C53G C62A C82U | -5.29
U21G G71U G110U U112A | -1.83
C20U A24U C56U | -6.92
C22A C49U C73G C124G | -4.49
C20U C72G A91G C101A C114G | -2.36
C20U U32C U106A | -2.46
C20U C40G | -2.17
C20U C123A | -0.867
U21A A37U C72U | -0.453
C20U G52U C53U C56A C123A | -3.62
C20U G44A A74G U87C U92A G93A C124U | -3.64
C22A C53G | -5
C20U C22A G23U G44U G63A C88G A103C U109A | -6.38
C20U G36U C70U G135U | -3.95
C20U C22A C76U C85G C123U | -5.95
U21A C22A C40U C73U C101A U133G | -5.39
U21A C22G A27U C56U C114U | -3.34
U21A A43U G61U C102A | -4.93
U21C G61C | -2.11
U21G G48C | -1.56
U21G U54C G58A U81A A91G A95U G113A U125G | -5.59
U21A G60A U96C U116G | -1.53
